This passage reports median fluorescent intensity (MFI) results from patent publication US20180187211A1.

This assay deals with PDL1 on the surface of TC-1 cells (mouse (TC-1 murine tumor cell line)) (UniProt Q9EP73). The assay can be described thus: flow cytometry, staining of TC-1 tumor cells (background control). (Flow cytometry measures light scatter and fluorescence of single cells or particles in a stream.)
UniProt Q9EP73, sequence (Q9EP73 19-290): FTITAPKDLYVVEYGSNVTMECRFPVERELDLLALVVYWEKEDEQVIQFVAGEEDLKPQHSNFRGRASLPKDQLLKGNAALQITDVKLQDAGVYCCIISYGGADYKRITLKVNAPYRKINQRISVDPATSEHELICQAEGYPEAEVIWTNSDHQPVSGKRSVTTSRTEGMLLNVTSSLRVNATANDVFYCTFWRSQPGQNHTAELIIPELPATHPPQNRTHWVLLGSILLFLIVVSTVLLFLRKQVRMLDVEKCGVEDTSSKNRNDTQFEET

Regarding PE-conjugated isotype control antibody, the median fluorescent intensity (MFI) amounted to 184 MFI.
